In series [1] the test system is TRF2. The series is described as follows: EMSA.
In series [2] the test system is TRF1. The experiment in a line: EMSA.

With Cy3 telomeric PCR product (255 bp), the K half in series [1] came out at 111 nM; in series [2], 152 nM.

For the origin of these results see publication PMC4151696.
